Values quoted from earlier work, collected in article PMC6021539.
pKd: −log10 of the molar value.

Target: Adrenomedullin (Homo sapiens) (UniProt P35318)

In the case of CXCR7 (from UniProt P25106), the pKd is listed as 6.72.
